# Laboratory results taken from US20030129186A1 (published 2003).
# Tests used:
# [1] = molecular target: T1, p97 receptor (melanotransferrin receptor, MTf-R) on bovine brain capillary endothelial cells (BBCECs) (bovine); assay: cell-based or functional assay
# [2] = molecular target: p97 receptor on isolated human brain capillaries (human); assay: cell-based or functional assay
# [3] = molecular target: T1, p97 receptor (melanotransferrin …); assay: [125I]-p97 (25 nM) binding to BBCECs, 2 h at 4 C, with or without saponin
# [4] = molecular target: T1, p97 receptor (melanotransferrin …); assay: Scatchard plot of specific [125I]-p97 binding to saponin-treated BBCECs (FIG. 12c)
# [5] = molecular target: T1, p97 receptor (melanotransferrin …); assay: Scatchard analysis of [125I]-p97 binding to saponin-permeabilized BBCEC monolayers at 4 C, displaced by unlabelled p97
binder,measurement,setting,value
"recombinant human melanotransferrin (p97) (ligand, UniProt P08582 20-709, looked up, also called MTf) GMEVRWCATSDPEQHKCGNMSEAFREAGIQPSLLCVRGTSADHCVQLIAAQEADAITLDGGAIYEAGKEHGLKPVVGEVYDQEVGTSYYAVAVVRRSSHVTIDTLKGVKSCHTGINRTVGWNVPVGYLVESGRLSVMGCDVLKAVSDYFGGSCVPGAGETSYSESLCRLCRGDSSGEGVCDKSPLERYYDYSGAFRCLAEGAGDVAFVKHSTVLENTDGKTLPSWGQALLSQDFELLCRDGSRADVTEWRQCHLARVPAHAVVVRADTDGGLIFRLLNEGQRLFSHEGSSFQMFSSEAYGQKDLLFKDSTSELVPIATQTYEAWLGHEYLHAMKGLLCDPNRLPPYLRWCVLSTPEIQKCGDMAVAFRRQRLKPEIQCVSAKSPQHCMERIQAEQVDAVTLSGEDIYTAGKTYGLVPAAGEHYAPEDSSNSYYVVAVVRRDSSHAFTLDELRGKRSCHAGFGSPAGWDVPVGALIQRGFIRPKDCDVLTAVSEFFNASCVPVNNPKNYPSSLCALCVGDEQGRNKCVGNSQERYYGYRGAFRCLVENAGDVAFVRHTTVFDNTNGHNSEPWAAELRSEDYELLCPNGARAEVSQFAACNLAQIPPHAVMVRPDTNIFTVYGLLDKAQDLFGDDHNKNGFKMFDSSNYHGQDLLFKDATVRAVPVGEKTTYRGWLGLDYVAALEGMSSQQC",decrease in apical-to-basal transport of [125I]-p97 (25 nM) across BBCEC monolayers with a 200-fold molar excess of unlabelled p97,[1],69%
same,"decrease in uptake of [125I]-p97 (100 nM) into isolated human brain capillaries, 1 h at 37 C, with a 50-fold molar excess of unlabelled p97",[2],60%
same,fold increase of [125I]-p97 associated with cells after saponin permeabilization (against untreated cells),[3],4 fold
same,Kd,[4],~1000 nM
same,Kd,[5],1400 nM
